Numbering of substitutions follows the chain as printed.
Experiments:
Assay in all cases: ELISA
RsSTT200 RBD = molecular target: RsSTT200 RBD
BtKY72 RBD = molecular target: BtKY72 RBD
SHC014 RBD = molecular target: SHC014 RBD
C028 RBD = molecular target: C028 RBD
RaTG13 RBD = molecular target: RaTG13 RBD
Pang17 RBD = molecular target: Pang17 RBD
LyRa3 RBD = molecular target: LyRa3 RBD
BM4831 RBD = molecular target: BM4831 RBD
Khosta2 RBD = molecular target: Khosta2 RBD
Rs4081 RBD = molecular target: Rs4081 RBD
RmYN02 RBD = molecular target: RmYN02 RBD
Rf1 RBD = molecular target: Rf1 RBD
Yun11 RBD = molecular target: Yun11 RBD

Measured: EC50

B1: M8a-15 (antibody, V domains shown)
VH: QVQLQQSGPELARPGASVKLSCRASGYTVTSFGLSWMKQRTGQGLEWIGEIYPTSKNTYYNDKFRTKATLTADKSSSTAYMELRSLTSEDSAVYFCVLYDYFDYWGQGTTLTVSS
VL: QIVLTQSPAIMSASPGEKVTISCSASSSVSYMYWYQQKTGSSPKPWIYRTSNLASGVPVRFSGSGSGTSYSLTISSMEAEDAATYYCQQYQSYPRTFGGGTKLEIK
not listed: RmYN02 RBD | Rf1 RBD | Yun11 RBD
> 10 µg/mL: all other assays above

B2: M8a-7 (antibody, V domains shown)
VH: QAYLQQSGAEMVRPGASVKMSCKASGYTFNNYNMHWVKQTPSQGLEWIGGFYPGNDDTAYSQKFKGKATLTVDKSSSTAFMHLSSLTSEDSAVYFCARSLGRYYAMDYWGQGTSVTVSS
VL: not shown
not listed: LyRa3 RBD
> 10 µg/mL: all other assays above

B3: M8a-28 (antibody, V domains shown)
VH: QVQLQQPGAELVKPGASVKMSCKASGYNFNHYWISWVKQRPGQGLEWIGDIYPLSHFTTYNEKFTNRATLTVDTSSTTAYMQLNSLTSDDSAVFYCARWDYFDSRTFDYWGQGTTLTVSS
VL: DILLTQFPAILSVSPGERVSFSCRASQTIGTNIHWYQQRINGSPRLLIKYASESISGIPSRFSGSGSGTDFSLSINNVESEDIADYYCQQINSWPLTFGAGTKLDLK
> 10 µg/mL: Pang17 RBD | BM4831 RBD

B4: M8a-30 (antibody, V domains shown)
VH: QVHLQQSGPELVKPGASVKISCKASGYGFSSSWMNWVKQRPGKGLEWIGRIYPGDGDTNYNDKFQGKATLTADRSSSTAYMHLTSLTSADSAVYFCARSLLYSFDYWGQGTTLTVSS
VL: DVVVTQTPLSLPVSFGDQVSISCRSSQSLAGSYGHTYLSWYLHKSGQSPQLLIYGISNRFSGVPDRFSGSGSGTDFTLKISTIKPEDLGMYYCLQGTHQPLTFGAGTKLELK
> 10 µg/mL: RsSTT200 RBD | C028 RBD | RaTG13 RBD | BM4831 RBD | Khosta2 RBD

B5: HSW-1 (antibody, V domains shown)
VH: QVQLQQPGAELVKPGTSMKLSCKASGYTFTSYWMHWVKQRPGQGLEWIGMIHPNSGSTKYNENFKSKATLTVDKSSSTAYMQFSSLTSEDSAVYYCVRSGSYYGTTYDYFDYWGQGTTLTVSS
VL: DIVLTQSPASLAVSLGQRATISCRASESVNIYGNSFMHWYQQKPGQPPKLLIFRASNLESGIPVRFSGSGSRTDFTLTINPVEADDVATYYCHQSNEDPFTFGSGTKLEIK
> 10 µg/mL: BM4831 RBD | Khosta2 RBD | Yun11 RBD

B6: M8a-3 (antibody, V domains shown)
VH: QVQLQQPGAELVLPGASVKLSCKASGYTFTNYWMHWVKQRPGHGLEWIGEIDPFDTYIKINQKFKGKSTLTVDTSSSTAYMQLSSLTSEDSAVYYCARPDSSGYPVYFDYWGQGTTLTVSS
VL: DIVMTQSHKFMSTSVGDRVSITCKASQDVGTYIAWYQQKPGQSPKLLIYWASTRHTGVPDRFTGSGSGTNYTLTISSVQAEDLALYHCQQHYSTPYTFGGGTKLEIK
> 10 µg/mL: BM4831 RBD | Rf1 RBD

B7: M8a-6 (antibody, V domains shown)
VH: QVQLQQPGTELVMPGASVKLSCKTSGYTFTHYWMHWVKQRPGEGLEWIGEIAPSDNYVKYNQKFKGKSTLSVDRSSSTAYMQLSSLTSEDSAVYFCARPDNSGYPVYFDYWGQGTSLTVSS
VL: DIVMTQSQKFMSTSLGDRVSISCKASQDVGTTVAWYQQKPGQSPKLLIYWASTRHTGVPDRFTGTGSGTDYTLTISSVAAEDLALYYCQQHYNTPYTFGGGTKLEIE
> 10 µg/mL: BtKY72 RBD | LyRa3 RBD | BM4831 RBD | Khosta2 RBD | Rs4081 RBD

B8: M8a-25 (antibody, V domains shown)
VH: EVQLQQSVAELVRPGASVKLSCTASGFNIKNTYMHWVKQRPEQGLEWIGRIDPSIDHTRYAPKFQGKAVITAFTSSNTAYLQLSSLTSEDTAIYYCAREGGGNYPYYYAIDYWGQGTSVTVSS
VL: DIQMTQSSSSFSVSLGDRVTITCKASEDIYIRLAWYQQRPGNAPRLLISNAISLETGVPSRFSGSGFGKDHTLSITSLQTEDVATYYCQQYWSTPWTFGGGTKLEIK
not listed: RmYN02 RBD | Rf1 RBD
> 10 µg/mL: all other assays above

B9: M8a-11 (antibody, V domains shown)
VH: EVQLQQSGPELVKPGASVKIPCKASGYTFTDYNMDWVKQSHEKSLEWIGEIDPNNGDTIYNQKFKGKASLTVDKSSSTAYMELRSLTSEDTAVYYCAKRGYYGSSLWWYFDVWGTGTTVTVSS
VL: B8 VL with F67S, H71Y
not listed: Rs4081 RBD | RmYN02 RBD | Rf1 RBD | Yun11 RBD
> 10 µg/mL: all other assays above

B10: M8a-29 (antibody, V domains shown)
VH: B8 VH
VL: DIVMTQAAFSNPVTLGTSASISCRSTKSLLHSNGITYLYWYLQKPGQSPQLLIYQMSNLASGVPDRFSSSGSGTDFTLRISRVEAEDVGVYYCAQNLELPYTFGGGTKLEIK
not listed: Rs4081 RBD
> 10 µg/mL: all other assays above

Source: US20230250157A1 (published 2023)
